Data on 29 sequences can be found in the supplement of paper PMC10201428.

± gives the standard deviation of the averaged measurements.

In series [1] the test system is VchCAST RNA-guided transposition machinery (E. coli BL21(DE3) host, lacZ target). Description: relative integration efficiency (T-RL orientation) vs wild-type transposon end (log2 (normalized fold change)); transposon end mutated: left end; higher = more efficient transposition. An outline of the steps: (§1)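 Co-transformation of E. coli BL21(DE3) combined a pUC57 mini-transposon donor, holding barcoded pools of 1549 left-end or 1849 right-end variants, with a T7-driven plasmid encoding a CRISPR array, tniQ-cas8-cas7-cas6 and tnsA-tnsB-tnsC. After plating with 0.1 mM IPTG at 37°C for 18 h, input plasmids and genomic integration junctions were PCR-amplified and Illumina-sequenced across two biological output replicates, with four reference barcodes. Relative integration efficiency is the normalised, log-transformed output/input barcode fold change.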

The test system is the same in series [2]. Description: relative integration efficiency (T-LR orientation) vs wild-type transposon end (log2 (normalized fold change)); transposon end mutated: left end; higher = more efficient transposition. An outline of the steps:
as §1

For “AATGTTGTTGATGCAACCATAAAGTGATATTTAATAATTATTTATAATCAACCATATATTGATATCTCCAGCAACTTAACCACAAAAACAAAACAACCATAAGTTGATATTTTTGTGAATCGAGTATTTCAGCAAAACTACTGCAGTAAGAA”, the “relative integration efficiency (log2)” value in series [1] is -3 ± 0.78; in series [2], -2.65 ± 0.85.

Consider “AATGTTGTTGATGCAACCATAAAGTGATATTTAATAATTATTTATAATCACAACCATATATTGATATCTCACAAAACAACCATAAGTTGATATTTTTGTGAATCGAGTATTTCAGCAAAACTACTGCAGTAAGAAAGTTACTTCGTGGTATG”, for which the “relative integration efficiency (log2)” value in series [1] was -8.21 ± 0.54; in series [2], -5.27 ± 1.

Regarding “AATGTTGTTGATGCAACCATAAAGTGATATTTAATAATTATTTATAATCAGCAACTCAACCATATATTGATATCTCACAAAACAACCATAAGTTGATATTTTTGTGAATCGAGTATTTCAGCAAAACTACTGCAGTAAGAAAGTTACTTCGT”, the results for the “relative integration efficiency (log2)” value in series [1] and in series [2] were -3.68 ± 1.1 and -3.27 ± 0.88, respectively.

As to “AATGTTGTTGATGCAACCATAAAGTGATATTTAATAATTATTTATAATCAGCAACTGCCAACACCCCACCAACGCGCGGTCGCGAGACACCCCACCAACGCCTGGTCGCGGGGGTGTCCGATCTGATTTCAGCAAAACTACTGCAGTAAGAA”, the “relative integration efficiency (log2)” value in series [1] is -6.35 ± 0.99; in series [2], -3.03 ± 0.58.

For “AATGTTGTTGATGCAACCATAAAGTGATATTTAATAATTATTTATAATCAGCAACTTAAAACACCCCACCAACGCGCGGTCGCGAGACACCCCACCAACGCCTGGTCGCGGGGGTGTCCGATCTGATTTCAGCAAAACTACTGCAGTAAGAA”, the results for the “relative integration efficiency (log2)” value in series [1] and in series [2] were -5.87 ± 1.1 and -3.63 ± 1.1, respectively.

Regarding “AATGTTGTTGATGCAACCATAAAGTGATATTTAATAATTATTTATAATCAGCAACTTAACAACCATATATTGATATCTCACAAAACAACCATAAGTTGATATTTTTGTGAATCGAGTATTTCAGCAAAACTACTGCAGTAAGAAAGTTACTT”, the “relative integration efficiency (log2)” value in series [1] was -3.63 ± 1.3; in series [2], -4.07 ± 1.9.

Regarding “AATGTTGTTGATGCAACCATAAAGTGATATTTAATAATTATTTATAATCAGCAACTTAACAACCATATATTGATATCTCCCACAAAAACAAAACAACCATAAGTTGATATTTTTGTGAATCGAGTATTTCAGCAAAACTACTGCAGTAAGAA”, the “relative integration efficiency (log2)” value is -1.81 ± 0.81 in series [1] and -3.54 ± 1.9 in series [2].

On to “AATGTTGTTGATGCAACCATAAAGTGATATTTAATAATTATTTATAATCAGCAACTTAACACACCCCACCAACGCGCGGTCGCGAGACACCCCACCAACGCCTGGTCGCGGGGGTGTCCGATCTGATTTCAGCAAAACTACTGCAGTAAGAA”, for which the figures for the “relative integration efficiency (log2)” value in series [1] and in series [2] were -5.82 ± 1.5 and -3.16 ± 0.77, respectively.

As to “AATGTTGTTGATGCAACCATAAAGTGATATTTAATAATTATTTATAATCAGCAACTTAACCAACCCCACCAACGCGCGGTCGCGAGACACCCCACCAACGCCTGGTCGCGGGGGTGTCCGATCTGATTTCAGCAAAACTACTGCAGTAAGAA”, the “relative integration efficiency (log2)” value in series [1] was -5.95 ± 1.6; in series [2], -4.2 ± 0.92.

Turning to “AATGTTGTTGATGCAACCATAAAGTGATATTTAATAATTATTTATAATCAGCAACTTAACCACAAAAACCAACGCGCGGTCGCGAGAACAAAAACCAACGCCCTGTCGCGGGCTGTGAATCGAGTATTTCAGCAAAACTACTGCAGTAAGAA”, the “relative integration efficiency (log2)” value was -6.97 ± 1.6 in series [1] and -4.56 ± 2.1 in series [2].

Consider “AATGTTGTTGATGCAACCATAAAGTGATATTTAATAATTATTTATAATCAGCAACTTAACCACAAAAACCAACGCGCGGTCGCGAGAACAAAACAACCATAAGTTGATATTTTTGTGAATCGAGTATTTCAGCAAAACTACTGCAGTAAGAA”, for which the “relative integration efficiency (log2)” value is -3.6 ± 1.3 in series [1] and -2.16 ± 0.37 in series [2].

On to “AATGTTGTTGATGCAACCATAAAGTGATATTTAATAATTATTTATAATCAGCAACTTAACCACAAAAACCAACGCGCGGTCGCGAGACACCCCACCAACGCCTGGTCGCGGGGGTGTCCGATCTGATTTCAGCAAAACTACTGCAGTAAGAA”, for which the “relative integration efficiency (log2)” value was -7.55 ± 2 in series [1] and -4.28 ± 1 in series [2].

Regarding “AATGTTGTTGATGCAACCATAAAGTGATATTTAATAATTATTTATAATCAGCAACTTAACCACAAAACAAAACGCGCGGTCGCGAGACACCCCACCAACGCCTGGTCGCGGGGGTGTCCGATCTGATTTCAGCAAAACTACTGCAGTAAGAA”, the “relative integration efficiency (log2)” value in series [1] was -6.07 ± 0.85; in series [2], -3.29 ± 0.78.

As to “AATGTTGTTGATGCAACCATAAAGTGATATTTAATAATTATTTATAATCAGCAACTTAACCACAAAACAACCAGCGCGGTCGCGAGACACCCCACCAACGCCTGGTCGCGGGGGTGTCCGATCTGATTTCAGCAAAACTACTGCAGTAAGAA”, the “relative integration efficiency (log2)” value in series [1] was -7.15 ± 1.6; in series [2] it was -5.07 ± 2.1.

As to “AATGTTGTTGATGCAACCATAAAGTGATATTTAATAATTATTTATAATCAGCAACTTAACCACAAAACAACCATAAAATGATAATTAACAAAAGTTGGTATTCAACTATAAAATGTGAATCGAGTATTTCAGCAAAACTACTGCAGTAAGAA”, the “relative integration efficiency (log2)” value in series [1] is -2.67 ± 1.1; in series [2], -1.31 ± 1.8.

With “AATGTTGTTGATGCAACCATAAAGTGATATTTAATAATTATTTATAATCAGCAACTTAACCACAAAACAACCATAAAGTGATATTTAACAAAAGTTGGTATTCAACTATAAAATGTGAATCGAGTATTTCAGCAAAACTACTGCAGTAAGAA”, the “relative integration efficiency (log2)” value was -2.53 ± 1.4 in series [1] and -0.811 ± 0.85 in series [2].

Regarding “AATGTTGTTGATGCAACCATAAAGTGATATTTAATAATTATTTATAATCAGCAACTTAACCACAAAACAACCATAAGTTGATATTTTACAAAAGTTGGTATTCAACTATAAAATGTGAATCGAGTATTTCAGCAAAACTACTGCAGTAAGAA”, the entries for the “relative integration efficiency (log2)” value in series [1] and in series [2] were -2.49 ± 1.1 and -0.485 ± 0.68, respectively.

In the case of “AATGTTGTTGATGCAACCATAAAGTGATATTTAATAATTATTTATAATCAGCAACTTAACCACAAAACAACCATAGCGGTCGCGAGACACCCCACCAACGCCTGGTCGCGGGGGTGTCCGATCTGATTTCAGCAAAACTACTGCAGTAAGAA”, the “relative integration efficiency (log2)” value in series [1] was -6.21 ± 1.6; in series [2], -4.33 ± 1.8.

As to “AATGTTGTTGATGCAACCATAAAGTGATATTTAATAATTATTTATAATCAGCAACTTAACCACAAAACAACCATATAGGTCGCGAGACACCCCACCAACGCCTGGTCGCGGGGGTGTCCGATCTGATTTCAGCAAAACTACTGCAGTAAGAA”, the entries for the “relative integration efficiency (log2)” value in series [1] and in series [2] were -5.2 ± 1.6 and -3.44 ± 0.57, respectively.

On to “AATGTTGTTGATGCAACCATAAAGTGATATTTAATAATTATTTATAATCAGCAACTTAACCACAAAACAACCATATATTGAGCGAGACACCCCACCAACGCCTGGTCGCGGGGGTGTCCGATCTGATTTCAGCAAAACTACTGCAGTAAGAA”, for which the entries for the “relative integration efficiency (log2)” value in series [1] and in series [2] were -4.19 ± 1.3 and -2.37 ± 1.7, respectively.

With “AATGTTGTTGATGCAACCATAAAGTGATATTTAATAATTATTTATAATCAGCAACTTAACCACAAAACAACCATATATTGATACAAAACAACCATAAGTTGATATTTTTGTGAATCGAGTATTTCAGCAAAACTACTGCAGTAAGAAAGTTA”, the “relative integration efficiency (log2)” value in series [1] was -4.34 ± 0.99; in series [2], -2.08 ± 1.7.

As to “AATGTTGTTGATGCAACCATAAAGTGATATTTAATAATTATTTATAATCAGCAACTTAACCACAAAACAACCATATATTGATAGAGACACCCCACCAACGCCTGGTCGCGGGGGTGTCCGATCTGATTTCAGCAAAACTACTGCAGTAAGAA”, the results for the “relative integration efficiency (log2)” value in series [1] and in series [2] were -3.06 ± 1.2 and -1.28 ± 2, respectively.

In the case of “AATGTTGTTGATGCAACCATAAAGTGATATTTAATAATTATTTATAATCAGCAACTTAACCACAAAACAACCATATATTGATATACAAAACAACCATAAGTTGATATTTTTGTGAATCGAGTATTTCAGCAAAACTACTGCAGTAAGAAAGT”, the “relative integration efficiency (log2)” value was -4.08 ± 1.3 in series [1] and -0.952 ± 0.93 in series [2].

Consider “AATGTTGTTGATGCAACCATAAAGTGATATTTAATAATTATTTATAATCAGCAACTTAACCACAAAACAACCATATATTGATATAGACACCCCACCAACGCCTGGTCGCGGGGGTGTCCGATCTGATTTCAGCAAAACTACTGCAGTAAGAA”, for which the figures for the “relative integration efficiency (log2)” value in series [1] and in series [2] were -2.48 ± 1.1 and -1.07 ± 1.7, respectively.

Regarding “AATGTTGTTGATGCAACCATAAAGTGATATTTAATAATTATTTATAATCAGCAACTTAACCACAAAACAACCATATATTGATATCACAAAACAACCATAAGTTGATATTTTTGTGAATCGAGTATTTCAGCAAAACTACTGCAGTAAGAAAG”, the “relative integration efficiency (log2)” value was -2.64 ± 0.93 in series [1] and -0.718 ± 0.95 in series [2].

Take “AATGTTGTTGATGCAACCATAAAGTGATATTTAATAATTATTTATAATCAGCAACTTAACCACAAAACAACCATATATTGATATCGACACCCCACCAACGCCTGGTCGCGGGGGTGTCCGATCTGATTTCAGCAAAACTACTGCAGTAAGAA”: the results for the “relative integration efficiency (log2)” value in series [1] and in series [2] were -2.44 ± 0.91 and -1.19 ± 2, respectively.

In the case of “AATGTTGTTGATGCAACCATAAAGTGATATTTAATAATTATTTATAATCAGCAACTTAACCACAAAACAACCATATATTGATATCTACAAAACAACCATAAGTTGATATTTTTGTGAATCGAGTATTTCAGCAAAACTACTGCAGTAAGAAA”, the “relative integration efficiency (log2)” value in series [1] was -1.23 ± 0.67; in series [2], -0.176 ± 0.54.

Regarding “AATGTTGTTGATGCAACCATAAAGTGATATTTAATAATTATTTATAATCAGCAACTTAACCACAAAACAACCATATATTGATATCTACACCCCACCAACGCCTGGTCGCGGGGGTGTCCGATCTGATTTCAGCAAAACTACTGCAGTAAGAA”, the “relative integration efficiency (log2)” value is -2.46 ± 1 in series [1] and -1.16 ± 1.5 in series [2].

Turning to “AATGTTGTTGATGCAACCATAAAGTGATATTTAATAATTATTTATAATCAGCAACTTAACCACAAAACAACCATATATTGATATCTCAACCCCACCAACGCCTGGTCGCGGGGGTGTCCGATCTGATTTCAGCAAAACTACTGCAGTAAGAA”, the “relative integration efficiency (log2)” value is -2.58 ± 0.89 in series [1] and -0.776 ± 1.1 in series [2].
